Laboratory results reported in publication PMC12048173.

Target: Full-length Stigmatella aurantiaca bacteriophytochrome 2 (SaBphP2), Pr state (Stigmatella aurantiaca)
Test: cryo-EM structure; single-particle cryo-EM, Spotiton nanowire grid, 0.4 mg/ml, pre-illuminated with 740 nm light (pure Pr state); global resolution 6.0 Å; subunits fitted as rigid units, not refined

Substance: Full-length Stigmatella aurantiaca bacteriophytochrome 2 (SaBphP2), Pr state (natural protein)
- stoichiometry N: 2
